Reference: PMC2840706

Legend:
[1] = target: HIV-1 CA A14C/E45C/W184A/M185A (HIV-1 (NL4-3)); assay: SEC
[2] = target: HIV-1 CA A14C/E45C/W184A/M185A (HIV-1 (NL4-3)); assay: cross-linking

Q: “HIV-1 CA A14C/E45C/W184A/M185A (natural protein)” was tested. Which stoichiometry N [1] did it give?
A: Its stoichiometry N is 6.

Q: What about the stoichiometry N [2] of the same substance?
A: Its stoichiometry N is 6.
